According to patent US20220195446:

What was measured:
[1] = tested on: ZnFng-WUS1 ATF (synthetic construct); assay: cell_activity; conditions: endogenous WUS2 mRNA by RT-PCR relative to Act1 in corn protoplasts; range 8-12%; mock nearly zero; binding inferred from activation
[2] = tested on: ZnFng-WUS2 ATF (synthetic construct); assay: cell_activity; conditions: endogenous WUS2 mRNA by RT-PCR relative to Act1 in corn protoplasts; range 15-60%; mock nearly zero; binding inferred from activation
Chain of ZnFng-WUS2 ATF (synthetic construct) (chain, as listed by the source): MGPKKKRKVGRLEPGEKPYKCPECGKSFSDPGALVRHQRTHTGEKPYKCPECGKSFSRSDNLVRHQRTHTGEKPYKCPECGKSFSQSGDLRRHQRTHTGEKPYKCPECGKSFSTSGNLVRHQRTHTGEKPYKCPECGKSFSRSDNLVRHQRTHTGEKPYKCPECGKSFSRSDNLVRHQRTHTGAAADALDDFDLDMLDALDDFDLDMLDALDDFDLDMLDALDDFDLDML

Chain of ZnFng-WUS1 ATF (synthetic construct) (chain, as listed by the source): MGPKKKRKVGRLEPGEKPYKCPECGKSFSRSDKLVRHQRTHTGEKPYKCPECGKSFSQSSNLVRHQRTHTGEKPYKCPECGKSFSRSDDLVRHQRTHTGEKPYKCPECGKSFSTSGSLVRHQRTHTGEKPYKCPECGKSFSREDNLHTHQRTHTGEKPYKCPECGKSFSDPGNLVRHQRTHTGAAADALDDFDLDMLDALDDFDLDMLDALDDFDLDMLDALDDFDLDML

GACTAGGTTGCGGAAGGG (double strand) [ZnFng-WUS1 binding site in maize WUS2 promoter]
activity [1]: 10 % of actin

GAGGAGGATGCAGAGGTC (double strand)
activity [2]: 50 % of actin
